The values below come from the supplement of paper PMC9112550, “Optimization of the antimicrobial peptide Bac7 by deep mutational scanning” (BMC Biology, 2022).

The data set has as its system Escherichia coli TOP10. In words: shrunken log2 fold change of peptide-encoding DNA abundance (4.5 h post-induction vs induction); higher = less antimicrobial activity (less host growth inhibition). The following applies: time post-induction: 4.5 h; library: site-saturation at positions 5, 18, 19, 20.
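Also: peptides expressed intracellularly from a pBAD plasmid library in pooled LB shake-flask culture, induced with 0.3% L-arabinose, DNA abundance read by NGS, three biological replicates, DESeq2 with apeglm shrinkage.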

For the sequence RRIRARPPRLPRPRPRPIDNPRP, the “shrunken log2 fold change” value was -0.0987.

For RRIRKRPPRLPRPRPRPYFGPRP, the “shrunken log2 fold change” value was -0.711.

Turning to RRIRPRPPRLPRPRPRPNVDPRP, the “shrunken log2 fold change” value is -0.0229. Then RRIRMRPPRLPRPRPRPVNSPRP, with 0.00706.

Turning to RRIRYRPPRLPRPRPRPKIVPRP, the “shrunken log2 fold change” value was -0.188. Consider RRIRPRPPRLPRPRPRPHTIPRP, for which the “shrunken log2 fold change” value is -0.39. Consider RRIRMRPPRLPRPRPRPKYKPRP, for which the “shrunken log2 fold change” value is -0.0345. Regarding RRIRWRPPRLPRPRPRPPRHPRP, the “shrunken log2 fold change” value was found to be 0.608. Consider RRIRDRPPRLPRPRPRPEYMPRP, for which the “shrunken log2 fold change” value is -0.00941. Turning to RRIRHRPPRLPRPRPRPCVIPRP, the “shrunken log2 fold change” value was -0.0839.

On to RRIRPRPPRLPRPRPRPAHIPRP, for which the “shrunken log2 fold change” value is -0.205. For the sequence RRIRVRPPRLPRPRPRPMAQPRP, the “shrunken log2 fold change” value came out at 0.149. Regarding RRIRSRPPRLPRPRPRPMACPRP, the “shrunken log2 fold change” value was -0.342. The value for RRIRHRPPRLPRPRPRPAGYPRP was -0.0739; that for RRIRGRPPRLPRPRPRPTRAPRP was 1.04.

As to RRIRLRPPRLPRPRPRPIARPRP, the “shrunken log2 fold change” value was -0.0553. Take RRIRIRPPRLPRPRPRPCAQPRP: the “shrunken log2 fold change” value was -0.485.

RRIRYRPPRLPRPRPRPNKQPRP: the “shrunken log2 fold change” value is -0.0515.

Take RRIRQRPPRLPRPRPRPWWKPRP: the “shrunken log2 fold change” value was -0.00542. For RRIRSRPPRLPRPRPRPDGLPRP, the “shrunken log2 fold change” value is 0.0397. The value for RRIRFRPPRLPRPRPRPLLLPRP was -0.443. Take RRIRLRPPRLPRPRPRPQATPRP: the “shrunken log2 fold change” value was -0.0468. Consider RRIRHRPPRLPRPRPRPSLLPRP, for which the “shrunken log2 fold change” value was -0.287. Then RRIRTRPPRLPRPRPRPPYVPRP, with -0.212; and RRIRRRPPRLPRPRPRPYHKPRP, with -0.535; and RRIRGRPPRLPRPRPRPPKIPRP, with 0.835. Then RRIRWRPPRLPRPRPRPCDAPRP, with 0.138. Then RRIRRRPPRLPRPRPRPWTNPRP, with 0.0119.

Consider RRIRRRPPRLPRPRPRPANDPRP, for which the “shrunken log2 fold change” value is 0.275. RRIRERPPRLPRPRPRPTHLPRP: the “shrunken log2 fold change” value came to 0.229.

For the sequence RRIRERPPRLPRPRPRPANNPRP, the “shrunken log2 fold change” value is -0.598. Then RRIRGRPPRLPRPRPRPEDVPRP, with 0.157; and RRIRKRPPRLPRPRPRPGMGPRP, with 0.606. The value for RRIRRRPPRLPRPRPRPKKKPRP was -0.00706. Turning to RRIRTRPPRLPRPRPRPGDPPRP, the “shrunken log2 fold change” value came to 0.106. Then RRIRERPPRLPRPRPRPSCCPRP, with 0.294; and RRIRIRPPRLPRPRPRPSMLPRP, with -0.422.

As for RRIRHRPPRLPRPRPRPFAFPRP, the “shrunken log2 fold change” value is -0.121. Take RRIRGRPPRLPRPRPRPDFYPRP: the “shrunken log2 fold change” value was 0.232.

In the case of RRIRWRPPRLPRPRPRPQPEPRP, the “shrunken log2 fold change” value stood at 0.139.

Take RRIRARPPRLPRPRPRPDYQPRP: the “shrunken log2 fold change” value was -0.0168. Regarding RRIRSRPPRLPRPRPRPISNPRP, the “shrunken log2 fold change” value was -0.338. In the case of RRIRYRPPRLPRPRPRPGYYPRP, the “shrunken log2 fold change” value was -0.545. Then RRIRHRPPRLPRPRPRPYYRPRP, with -0.0075; and RRIRPRPPRLPRPRPRPPRHPRP, with 0.278; and RRIRVRPPRLPRPRPRPEGMPRP, with 0.326. The value for RRIRSRPPRLPRPRPRPVHCPRP was -0.258. For the sequence RRIRQRPPRLPRPRPRPYNPPRP, the “shrunken log2 fold change” value is -0.529. The value for RRIRRRPPRLPRPRPRPKRFPRP was 0.305; that for RRIRNRPPRLPRPRPRPNHHPRP was -0.701; that for RRIRKRPPRLPRPRPRPWCFPRP was 0.164. Consider RRIRARPPRLPRPRPRPSGIPRP, for which the “shrunken log2 fold change” value was 0.0311. For the sequence RRIRERPPRLPRPRPRPLWVPRP, the “shrunken log2 fold change” value was -0.109. Then RRIRCRPPRLPRPRPRPICEPRP, with -0.178; and RRIRLRPPRLPRPRPRPFHAPRP, with -0.219. Then RRIRERPPRLPRPRPRPNYHPRP, with -0.626; and RRIRERPPRLPRPRPRPQPFPRP, with 0.217.

Take RRIRRRPPRLPRPRPRPYLRPRP: the “shrunken log2 fold change” value worked out at 0.0234. As for RRIRIRPPRLPRPRPRPTFGPRP, the “shrunken log2 fold change” value is -0.28. In the case of RRIRGRPPRLPRPRPRPLPPPRP, the “shrunken log2 fold change” value came to 1.19.

In the case of RRIRKRPPRLPRPRPRPPDIPRP, the “shrunken log2 fold change” value came to 0.609. With RRIRYRPPRLPRPRPRPDCEPRP, the “shrunken log2 fold change” value came out at 0.0295. For RRIRLRPPRLPRPRPRPEGVPRP, the “shrunken log2 fold change” value was 0.568. The value for RRIRTRPPRLPRPRPRPAQNPRP was 0.323; that for RRIRGRPPRLPRPRPRPPADPRP was 1.59; that for RRIRDRPPRLPRPRPRPPMAPRP was -0.0543. Consider RRIRCRPPRLPRPRPRPRDAPRP, for which the “shrunken log2 fold change” value was found to be 0.56. With RRIRTRPPRLPRPRPRPPKHPRP, the “shrunken log2 fold change” value was determined as 0.157. Regarding RRIRKRPPRLPRPRPRPTNIPRP, the “shrunken log2 fold change” value is -0.188.

Take RRIRMRPPRLPRPRPRPGRNPRP: the “shrunken log2 fold change” value came out at 0.344. RRIRGRPPRLPRPRPRPSDPPRP: the “shrunken log2 fold change” value turned out to be 0.261. Then RRIRNRPPRLPRPRPRPKSVPRP, with 0.0186; and RRIRLRPPRLPRPRPRPERRPRP, with -0.0189. For the sequence RRIRMRPPRLPRPRPRPKYIPRP, the “shrunken log2 fold change” value was -0.161. The value for RRIRWRPPRLPRPRPRPKQEPRP was 0.0489; that for RRIRYRPPRLPRPRPRPNFWPRP was 0.293; that for RRIRKRPPRLPRPRPRPQYLPRP was -0.0967.

As for RRIRGRPPRLPRPRPRPNCTPRP, the “shrunken log2 fold change” value was found to be 0.172.

RRIRLRPPRLPRPRPRPGHCPRP: the “shrunken log2 fold change” value is 0.0372. The value for RRIRARPPRLPRPRPRPFNFPRP was -0.0477; that for RRIRCRPPRLPRPRPRPMSSPRP was 0.0481. Consider RRIRSRPPRLPRPRPRPPCDPRP, for which the “shrunken log2 fold change” value worked out at 0.0563. As to RRIRDRPPRLPRPRPRPWYFPRP, the “shrunken log2 fold change” value is -0.327.

In the case of RRIRWRPPRLPRPRPRPLTGPRP, the “shrunken log2 fold change” value is -0.396. As to RRIRHRPPRLPRPRPRPKQPPRP, the “shrunken log2 fold change” value is -0.00478. The value for RRIRQRPPRLPRPRPRPGFQPRP was 0.00598; that for RRIRNRPPRLPRPRPRPVTCPRP was -0.45; that for RRIRQRPPRLPRPRPRPSSFPRP was -0.308. For RRIRFRPPRLPRPRPRPTLDPRP, the “shrunken log2 fold change” value turned out to be 0.0939.

For RRIRFRPPRLPRPRPRPWHFPRP, the “shrunken log2 fold change” value was -0.542.

Turning to RRIRVRPPRLPRPRPRPSGHPRP, the “shrunken log2 fold change” value is -0.185. Then RRIRPRPPRLPRPRPRPMLMPRP, with 0.459; and RRIRLRPPRLPRPRPRPGHQPRP, with 0.122; and RRIRCRPPRLPRPRPRPAHTPRP, with -0.0293. Regarding RRIRRRPPRLPRPRPRPEMQPRP, the “shrunken log2 fold change” value was 0.114. Regarding RRIRKRPPRLPRPRPRPLPNPRP, the “shrunken log2 fold change” value is -0.0104. As to RRIRPRPPRLPRPRPRPTKRPRP, the “shrunken log2 fold change” value is 0.265.

As for RRIRRRPPRLPRPRPRPWTEPRP, the “shrunken log2 fold change” value was found to be 0.116. Regarding RRIRWRPPRLPRPRPRPIPYPRP, the “shrunken log2 fold change” value was -0.031. Then RRIRHRPPRLPRPRPRPKCHPRP, with -0.201.

Consider RRIRGRPPRLPRPRPRPLDHPRP, for which the “shrunken log2 fold change” value came out at 0.178. As to RRIRYRPPRLPRPRPRPQAAPRP, the “shrunken log2 fold change” value is -0.195. The value for RRIRDRPPRLPRPRPRPWANPRP was 0.0419; that for RRIRIRPPRLPRPRPRPSIWPRP was -0.0823. The value for RRIRRRPPRLPRPRPRPSHSPRP was -0.00512; that for RRIRWRPPRLPRPRPRPHFDPRP was -0.0757.

For the sequence RRIRARPPRLPRPRPRPMRTPRP, the “shrunken log2 fold change” value is 0.802.

Take RRIRDRPPRLPRPRPRPNLSPRP: the “shrunken log2 fold change” value is -0.115. Take RRIRMRPPRLPRPRPRPAHRPRP: the “shrunken log2 fold change” value amounted to 0.444. For RRIRCRPPRLPRPRPRPTDMPRP, the “shrunken log2 fold change” value is -0.16. The value for RRIRYRPPRLPRPRPRPCRWPRP was -0.267. Consider RRIRCRPPRLPRPRPRPDKPPRP, for which the “shrunken log2 fold change” value amounted to 0.0422.

Consider RRIRDRPPRLPRPRPRPQTYPRP, for which the “shrunken log2 fold change” value was -0.24.

Take RRIRTRPPRLPRPRPRPWMGPRP: the “shrunken log2 fold change” value was -0.116. Turning to RRIRARPPRLPRPRPRPQWHPRP, the “shrunken log2 fold change” value was -0.0862. Then RRIRSRPPRLPRPRPRPTVHPRP, with -0.0989; and RRIRNRPPRLPRPRPRPMSVPRP, with 0.0774; and RRIRHRPPRLPRPRPRPTLGPRP, with -0.0595. RRIRARPPRLPRPRPRPINSPRP: the “shrunken log2 fold change” value was -0.213. As to RRIRPRPPRLPRPRPRPEMAPRP, the “shrunken log2 fold change” value worked out at 0.0664. Then RRIRVRPPRLPRPRPRPSRNPRP, with -0.0696; and RRIRIRPPRLPRPRPRPCCYPRP, with -0.495. For the sequence RRIRGRPPRLPRPRPRPALWPRP, the “shrunken log2 fold change” value stood at 0.985. Then RRIRQRPPRLPRPRPRPYWAPRP, with -0.355. With RRIRHRPPRLPRPRPRPKMAPRP, the “shrunken log2 fold change” value was -0.0953.
